Results taken from US20110081661A1, “Modified photoproteins with increased affinity for calcium and enhanced bioluminescence and uses thereof” (Millipore Corporation, priority 2009, published 2011).
Where two headings read alike, the source gives them in different places.

T1: EP1 Receptor (Homo sapiens, UniProt P34995)
T1 construct: host or cells: HEK293T
T1 sequence (P34995 1-402): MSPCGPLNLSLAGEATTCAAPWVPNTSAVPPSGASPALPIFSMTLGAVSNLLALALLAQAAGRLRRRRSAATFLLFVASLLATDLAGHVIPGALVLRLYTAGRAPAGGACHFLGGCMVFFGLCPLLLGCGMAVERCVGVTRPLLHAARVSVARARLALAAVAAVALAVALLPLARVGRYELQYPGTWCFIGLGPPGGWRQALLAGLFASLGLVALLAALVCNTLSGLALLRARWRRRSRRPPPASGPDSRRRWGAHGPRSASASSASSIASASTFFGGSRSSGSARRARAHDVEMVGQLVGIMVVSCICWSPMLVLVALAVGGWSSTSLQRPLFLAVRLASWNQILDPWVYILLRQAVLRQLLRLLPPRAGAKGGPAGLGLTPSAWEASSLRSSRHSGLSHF

T2: GIP Receptor (Homo sapiens, UniProt P48546)
T2 construct: host or cells: HEK293T
T2 sequence (P48546 22-466): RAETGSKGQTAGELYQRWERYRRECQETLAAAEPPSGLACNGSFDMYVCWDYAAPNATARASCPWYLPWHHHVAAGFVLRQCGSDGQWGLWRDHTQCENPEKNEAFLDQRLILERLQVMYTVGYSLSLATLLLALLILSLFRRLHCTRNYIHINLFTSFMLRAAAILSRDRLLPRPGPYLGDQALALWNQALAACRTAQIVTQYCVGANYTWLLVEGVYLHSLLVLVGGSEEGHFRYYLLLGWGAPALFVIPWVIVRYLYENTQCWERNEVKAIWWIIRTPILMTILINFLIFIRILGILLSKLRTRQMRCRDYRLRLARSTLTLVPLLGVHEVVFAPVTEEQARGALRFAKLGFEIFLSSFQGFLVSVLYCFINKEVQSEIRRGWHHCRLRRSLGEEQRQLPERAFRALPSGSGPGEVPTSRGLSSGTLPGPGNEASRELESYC

B1: Cyto-aequorin: Wild-type Aequorin (wt-Aequorin) amino acid sequence, SEQ ID NO:2; cytosolic (protein, listed as Aequorea victoria)
chain: MTSKQYSVKLTSDFDNPRWIGRHKHMFNFLDVNHNGKISLDEMVYKASDIVINNLGATPEQAKRHKDAVEAFFGGAGMKYGVETDWPAYIEGWKKLATDELEKYAKNEPTLIRIWGDALFDIVDKDQNGAITLDEWKAYTKAAGIIQSSEDCEETFRVCDIDESGQLDVDEMTRQHLGFWYTMDPACEKLYGGAVP

Tests used:
EP1 Receptor [1] = biological target: T1, EP1 Receptor; type: cell-based; conditions: read-out: EP1 Receptor EC50 for PGE2
Description: The cells were subsequently thawed and either directly placed into FreeStyle media (INVITROGEN) containing 5 μM coelenterazine (Thaw/Assay), or plated in a flask overnight in growth media consisting of DMEM/F12 containing 10% fetal bovine serum, non-essential amino acids, and penicillin/streptomycin prior to loading with coelenterazine (Thaw/ON Recovery). After loading with coelenterazine for 3-4 h, the cells were centrifuged and resuspended in HBSS with calcium and magnesium.
Thaw/Assay indicates dose response of cells that were thawed and directly loaded with coelenterazine prior to assay, and Thaw/ON Recovery indicates dose response of cells allowed to recover in growth media overnight prior to loading and assay. […] The EC50 values for activation of each receptor by its ligand for each cell treatment method were determined as described above for FIG. 5 for cytosolic clytin K168D photoprotein transfected into HEK293T cells with cotransfected GIP Receptor and G protein.

EP1 Receptor [2] = biological target: T1, EP1 Receptor; assay: Fluorescent calcium assay, stable cell line, EP1 Receptor; type: cell-based; conditions: read-out: EP1 Receptor EC50 for PGE2; Fluorescent Ca^2+ assay, cell line stably expressing the receptor
GIP Receptor = biological target: T2, GIP Receptor; assay: GIP receptor-mediated bioluminescence in HEK293T cells with chimeric promiscuous G protein (FIG. 5, Table II); type: cell-based
H1 histamine receptor = biological target: T3, H1 histamine receptor (Homo sapiens, UniProt P35367); assay: GPCR-mediated versus total bioluminescence in U-2OS cells (FIG. 4); type: cell-based; conditions: 10 μM histamine vs Triton X-100 with 1 mM calcium
T3 construct: expressed in transfected cells; host or cells: U-2OS
Description: In another experiment, the ability of the various photoproteins to detect calcium flux in live cells was assessed by adding varying concentrations of histamine to cells in order to activate the H1 histamine receptor followed by measurement of bioluminescence of the various photoproteins. U-2OS cells were transfected with a cDNA encoding H1 histamine receptor along with a cDNA encoding either a wild-type photoprotein or a modified photoprotein according to the invention, as described above in Example 2, except that Lipofectamine-2000 (INVITROGEN) was used as the transfection reagent. On the second day, the cells were trypsinized, counted, and plated in a white tissue-culture treated 96-well plate (COSTAR) at a density of about 50,000 cells/well in growth media consisting of DMEM containing 10% fetal bovine serum, non-essential amino acids, HEPES and penicillin/streptomycin. On the third day, the medium was removed and cells were washed once with 200 μl/well of HBSS/HEPES (containing Ca^2+). Cells were subsequently incubated with 5 μM coelenterazine in HBSS/HEPES (containing Ca^2+) in a volume of 200 μl/well, for 3-4 hours at room temperature in the dark. After incubation, the coelenterazine solution was removed and cells were washed and replaced with HBSS/HEPES buffer containing both Ca^2+ and Mg^2+. 50 μl/well of histamine at varying concentrations in HBSS/HEPES containing both Ca^2+ and Mg^2+ was added to the cells and total bioluminescence was measured at 20 seconds using a Victor2 luminometer.
In an exemplary experiment, U-2OS cells were transfected, plated and loaded with coelenterazine as described in Example 3. Luminescence induced by buffer alone or by 10 μM histamine was measured also as described in Example 3. Additionally, luminescence induced by addition of Triton X-100 in the presence of 1 mM calcium was also determined in order to assess the total amount of active photoprotein detectable using saturating calcium concentrations in cells.

[3] = background statement; cited from earlier work
[4] = Calcium EC50 of mitochondrially targeted photoproteins in HEK293T cells without cotransfected GPCR or G protein (Table II); type: cell-based; conditions: no cotransfected GPCR or G protein

T3 sequence (P35367 whole entry): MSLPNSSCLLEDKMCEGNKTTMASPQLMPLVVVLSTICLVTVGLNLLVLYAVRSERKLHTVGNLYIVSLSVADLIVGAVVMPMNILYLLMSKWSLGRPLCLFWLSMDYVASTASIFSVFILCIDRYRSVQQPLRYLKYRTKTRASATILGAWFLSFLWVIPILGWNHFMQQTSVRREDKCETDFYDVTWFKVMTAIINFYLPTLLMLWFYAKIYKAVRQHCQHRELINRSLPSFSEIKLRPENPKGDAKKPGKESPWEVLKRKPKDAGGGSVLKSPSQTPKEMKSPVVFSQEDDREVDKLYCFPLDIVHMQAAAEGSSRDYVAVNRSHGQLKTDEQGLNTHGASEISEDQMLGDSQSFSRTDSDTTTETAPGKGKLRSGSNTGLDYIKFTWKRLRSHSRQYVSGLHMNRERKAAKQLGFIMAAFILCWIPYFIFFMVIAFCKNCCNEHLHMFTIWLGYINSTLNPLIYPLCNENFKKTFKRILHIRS

Molecule | EC50 (EP1 Receptor [1]; Luminescent Assay, Thaw/Assay) [nM] | EC50 (EP1 Receptor [1]; Luminescent assay, Thaw/ON Recovery) [nM] | EC50 (EP1 Receptor [2]) [nM] | Max signal with GIP (RLU × 10^−5) (GIP Receptor; HEK293T cells, GIP Receptor + promiscuous G protein) | EC50 (GIP Receptor; HEK293T cells, GIP Receptor + promiscuous G protein, luminescence vs GIP concentration) [nM] | % GPCR/total (GIP Receptor; signal induced by maximal GIP (1 μM) as percentage of signal induced by Triton X-100 with 1 mM Ca^2+) [%] | Signal: background with GIP (GIP Receptor; signal induced by maximal GIP (1 μM) divided by signal induced by buffer alone) | GPCR-mediated signal as % of the total signal (H1 histamine receptor) | affinity for calcium [3] | EC50 [4] [nM]
CCCCC[C@H](O)/C=C/[C@H]1[C@H](O)CC(=O)[C@@H]1C/C=C\CCCC(=O)O [PGE2, prostaglandin E2] | 6 | 10 | 3 |  |  |  |  |  |  | 
B1 |  |  |  | 1.21 | 6.67 | 13.0 | 29.4 | about 30% | around 7 μM | 235
